Reference: publication PMC4652608, “The inhibition of human farnesyl pyrophosphate synthase by nitrogen-containing bisphosphonates. Elucidating the role of active site threonine 201 and tyrosine 204 residues using enzyme mutants^” (Bone, 2015)

Experiments:
FPPS synthase assay [1] = substrate: CC(C)=CCC/C(C)=C/COP(=O)(O)OP(=O)(O)O; test: FPPS synthase assay; type: biochemical, Homo sapiens; conditions: co-substrate IPP
Excerpt: (§1) FPPS synthase assay on human farnesyl pyrophosphate synthase (FPPS; wtFPPS)

FPPS synthase assay [2] = substrate: C=C(C)CCO[P@@](=O)(O)OP(=O)(O)O; test: FPPS synthase assay; type: biochemical, Homo sapiens; conditions: co-substrate GPP
Excerpt: as §1

B1: human farnesyl pyrophosphate synthase (FPPS; wtFPPS) (Homo sapiens) (protein)
chain: MNGDQNSDVYAQEKQDFVQHFSQIVRVLTEDEMGHPEIGDAIARLKEVLEYNAIGGKYNRGLTVVVAFRELVEPRKQDADSLQRAWTVGWCVELLQAFFLVADDIMDSSLTRRGQICWYQKPGVGLDAINDANLLEACIYRLLKLYCREQPYYLNLIELFLQSSYQTEIGQTLDLLTAPQGNVDLVRFTEKRYKSIVKYKTAFYSFYLPIAAAMYMAGIDGEKEHANAKKILLEMGEFFQIQDDYLDLFGDPSVTGKIGTDIQDNKCSWLVVQCLQRATPEQYQILKENYGQKEAEKVARVKALYEELDLPAVFLQYEEDSYSHIMALIEQYAAPLPPAVFLGLARKIYKRRK
notes: recombinant, pET-28a based LIC vector; TEV protease-cleaved for crystals; homodimer of 42 kDa monomers
FPPS synthase assay [1]
  Km: 2.1 ± 0.2 µM
  kcat: 0.42 s⁻¹
  kcat/Km: 200000 M⁻¹ s⁻¹
FPPS synthase assay [2]
  Km: 1.8 ± 0.3 µM
  kcat: 0.42 s⁻¹
  kcat/Km: 230000 M⁻¹ s⁻¹
